For this experiment, the target named is recombinant SARS-CoV-2 S 6P protein (SARS-CoV-2, Wuhan-Hu-1 reference …, UniProt P0DTC2, stabilised). Put plainly: ELISA. For orientation: ELISA stands for enzyme-linked immunosorbent assay.

Where a chain is given by its changes, count along the chain named. Names may count otherwise.

B1: AZD8895 P99V (heavy chain) (antibody, V domains shown)
VH: QMQLVQSGPEVKKPGTSVKVSCKASGFTFMSSAVQWVRQARGQRLEWIGWIVIGSGNTNYAQKFQERVTITRDMSTSTAYMELSSLRSEDTAVYYCAAVYCSSISCNDGFDIWGQGTMVTVSS
VL: not shown
In the case of B1, the binding result is listed as “binds”.

B2: AZD8895 D108A (heavy chain) (antibody, V domains shown)
VH: B1 VH with V99P, D108A
VL: not shown
As to B2, the binding result is reported as “binds”.

B3: AZD8895 D108N (heavy chain) (antibody, V domains shown)
VH: B1 VH with V99P, D108N
VL: not shown
With B3, the binding result is “binds”.

B4: AZD8895 D108E (heavy chain) (antibody, V domains shown)
VH: B1 VH with V99P, D108E
VL: not shown
As for B4, the binding result is on record as “binds”.

B5: AZD8895 P99N (heavy chain) (antibody, V domains shown)
VH: B1 VH with V99N
VL: not shown
For the molecule B5, the binding result is “binds”.

The values are drawn from PMC8543371 (Nature microbiology, 2021).
